Laboratory results reported in patent US20170174789A1 (Regeneron, published 2017).
One block for each binder: values may come before it.

Assays:
[1] = target: T1, hTie2 (Ig2-EGF) (human, UniProt Q02763 121-344); assay: Luminex bead binding
T1 construct: Domain-deletion construct linked to Luminex beads
Procedure: (§1) For binding, 25 μl of anti-Tie2 antibody (25 μg/ml) was added to 75 μl of the above created Luminex bead mixture (3×10³ beads per construct) in binding buffer (PBS, 0.05% Tween 20, 1 mg/ml BSA, 0.05% sodium azide) into a 96 well filter plate (Millipore). Incubation was at room temperature (RT) for 90 min or overnight at 4° C. with shaking. The beads were washed 3× with washing buffer (PBS+0.05% Tween 20) resuspended in 100 μl binding buffer containing PE (phycoerythrine)-labeled anti human kappa or PE-labeled anti mouse Fab secondary antibody and incubated at RT for 45 min with shaking. Samples were washed 2× more and binding signal (MFI) for each bead was determined using a Luminex L200 or FLEXMAP3D instrument. Bead linked human Tie2 was used as positive control and bead linked human Tie1 was used to measure family cross-reactivity. In general MFI signals greater than 500 units represent significant binding.

[2] = target: T2, hTie2 (Ig1-Ig2-EGF) (human, UniProt Q02763 24-344); assay: Luminex bead binding
T2 construct: Domain-deletion construct; also used for H/D exchange
Procedure: as §1

[3] = target: T3, hTie2 (EGF) (human, UniProt Q02763 210-344); assay: Luminex bead binding
T3 construct: Domain-deletion construct linked to Luminex beads
T3 sequence (Q02763 other isoform, or with tags, fused parts or gaps limits assumed): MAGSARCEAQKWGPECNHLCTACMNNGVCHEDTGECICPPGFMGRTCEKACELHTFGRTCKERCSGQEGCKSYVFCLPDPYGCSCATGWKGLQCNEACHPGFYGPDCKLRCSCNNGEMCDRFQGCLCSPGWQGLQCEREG
Procedure: as §1

[4] = target: T4, hTie2 (Ig3-FN) (human, UniProt Q02763 350-730); assay: Luminex beads, 25 ug/ml mAb
T4 construct: also called hTie2 (Ig3, FN)-hFc
T4 sequence (Q02763 350-730 limits assumed): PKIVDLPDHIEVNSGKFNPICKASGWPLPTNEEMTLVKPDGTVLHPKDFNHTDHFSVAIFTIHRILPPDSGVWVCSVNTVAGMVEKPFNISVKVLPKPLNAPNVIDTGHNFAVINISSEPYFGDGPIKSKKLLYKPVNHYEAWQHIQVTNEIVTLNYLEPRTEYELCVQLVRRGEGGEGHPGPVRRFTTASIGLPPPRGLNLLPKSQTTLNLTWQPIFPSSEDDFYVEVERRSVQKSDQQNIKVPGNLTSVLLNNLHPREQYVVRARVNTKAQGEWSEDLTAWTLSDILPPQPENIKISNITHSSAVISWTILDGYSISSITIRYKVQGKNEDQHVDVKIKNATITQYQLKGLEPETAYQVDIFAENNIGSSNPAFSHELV
Procedure: as §1

[5] = target: T5, hTie2-mFc (human); assay: Luminex beads, 25 ug/ml mAb
T5 chain: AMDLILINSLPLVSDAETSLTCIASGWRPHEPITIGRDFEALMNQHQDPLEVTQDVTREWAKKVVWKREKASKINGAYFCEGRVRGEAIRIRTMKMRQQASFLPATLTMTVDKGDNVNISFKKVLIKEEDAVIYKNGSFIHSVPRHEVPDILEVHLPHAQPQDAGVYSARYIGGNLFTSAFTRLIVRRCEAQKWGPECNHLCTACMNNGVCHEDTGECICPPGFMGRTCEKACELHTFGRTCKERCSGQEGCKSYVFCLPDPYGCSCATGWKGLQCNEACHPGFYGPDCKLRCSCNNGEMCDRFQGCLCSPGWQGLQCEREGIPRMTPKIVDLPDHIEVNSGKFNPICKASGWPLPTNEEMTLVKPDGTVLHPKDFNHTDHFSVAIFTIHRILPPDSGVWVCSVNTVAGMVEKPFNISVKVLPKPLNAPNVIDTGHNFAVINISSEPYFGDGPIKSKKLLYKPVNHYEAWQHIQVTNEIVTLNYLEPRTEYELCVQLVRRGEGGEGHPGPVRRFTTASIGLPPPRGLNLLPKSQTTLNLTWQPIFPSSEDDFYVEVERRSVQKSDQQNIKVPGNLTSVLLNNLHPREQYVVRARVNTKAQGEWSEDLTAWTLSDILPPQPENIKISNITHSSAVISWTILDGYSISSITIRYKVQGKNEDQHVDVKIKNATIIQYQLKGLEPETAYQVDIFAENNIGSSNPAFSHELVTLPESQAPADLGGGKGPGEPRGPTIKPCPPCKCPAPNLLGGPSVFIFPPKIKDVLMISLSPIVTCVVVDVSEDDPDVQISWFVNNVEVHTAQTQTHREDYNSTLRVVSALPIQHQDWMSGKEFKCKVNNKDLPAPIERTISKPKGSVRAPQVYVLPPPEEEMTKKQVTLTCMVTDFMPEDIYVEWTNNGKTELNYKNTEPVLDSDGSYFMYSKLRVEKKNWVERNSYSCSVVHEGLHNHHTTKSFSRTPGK
Procedure: as §1

[6] = target: T6, hTie2 (FN) (human, UniProt Q02763 445-730); assay: Luminex beads, 25 ug/ml mAb
T6 construct: also called hTie2 (FN)-hFc
T6 sequence (Q02763 445-730 limits assumed): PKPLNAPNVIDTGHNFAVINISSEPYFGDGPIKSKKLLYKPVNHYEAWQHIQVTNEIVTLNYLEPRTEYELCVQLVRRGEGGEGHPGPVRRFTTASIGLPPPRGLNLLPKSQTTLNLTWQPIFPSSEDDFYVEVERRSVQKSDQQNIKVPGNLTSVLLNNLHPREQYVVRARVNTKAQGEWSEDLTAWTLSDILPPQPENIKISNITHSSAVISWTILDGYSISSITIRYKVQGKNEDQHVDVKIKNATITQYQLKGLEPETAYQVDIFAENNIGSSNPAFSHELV
Procedure: as §1

[7] = target: T7, hTie2-His (human, UniProt Q02763 23-745); assay: SPR Biacore 37C, mAb captured
T7 construct: also called ecto-Tie2 fused to 6xHis; biotin-Tie2-His
Procedure: (§2) (Tables 3-6). Measurements were conducted on a Biacore 2000 or T200 instrument.
(§3) For antibodies with a mouse constant region (designated H1M or H2M), antibodies were immobilized onto an anti-mouse Fc sensor surface and different concentrations of human, mouse or rat Tie2 constructs (hTie2-His, mTie2-hFc and rTie2-hFc) were injected over the antibody captured surface. For antibodies in the human IgG format (designated H1H or H4H), either an anti-human Fc sensor surface (hTie2-His and hTie2-mFc) or anti-human Fab sensor surface (mTie2-hFc and rTie2-hFc) was employed depending on the Tie-2 construct applied to the antibody captured surface. Amino acid sequences of the constructs used in this Example are as follows: hTie2-His (SEQ ID NO:2); hTie2-hFc (SEQ ID NO:3); hTie2-mFc (SEQ ID NO:4); rTie2-hFc (SEQ ID NO:5); and mTie2-hFc (SEQ ID NO:6).
(§4) Kinetic rate constants—association rate (ka) and dissociation rate (kd) were determined by fitting the real time binding sensorgrams to a 1:1 binding model with mass transport limitation using Scrubber 2.0 curve fitting software. The equilibrium dissociation constant (KD) and dissociative half-life (T½) were calculated from the kinetic rate constants as: KD (M)=kd/ka; and T½ (min)=(In2/(60*kd).).

[8] = target: T5, hTie2-mFc; assay: SPR Biacore 37C, mAb captured
Procedure: as §2, §3, §4

[9] = target: T8, rTie2-hFc (rat); assay: SPR Biacore 25C, mAb captured
T8 construct: also called rat Tie2
T8 sequence (chain, as listed by the source limits assumed): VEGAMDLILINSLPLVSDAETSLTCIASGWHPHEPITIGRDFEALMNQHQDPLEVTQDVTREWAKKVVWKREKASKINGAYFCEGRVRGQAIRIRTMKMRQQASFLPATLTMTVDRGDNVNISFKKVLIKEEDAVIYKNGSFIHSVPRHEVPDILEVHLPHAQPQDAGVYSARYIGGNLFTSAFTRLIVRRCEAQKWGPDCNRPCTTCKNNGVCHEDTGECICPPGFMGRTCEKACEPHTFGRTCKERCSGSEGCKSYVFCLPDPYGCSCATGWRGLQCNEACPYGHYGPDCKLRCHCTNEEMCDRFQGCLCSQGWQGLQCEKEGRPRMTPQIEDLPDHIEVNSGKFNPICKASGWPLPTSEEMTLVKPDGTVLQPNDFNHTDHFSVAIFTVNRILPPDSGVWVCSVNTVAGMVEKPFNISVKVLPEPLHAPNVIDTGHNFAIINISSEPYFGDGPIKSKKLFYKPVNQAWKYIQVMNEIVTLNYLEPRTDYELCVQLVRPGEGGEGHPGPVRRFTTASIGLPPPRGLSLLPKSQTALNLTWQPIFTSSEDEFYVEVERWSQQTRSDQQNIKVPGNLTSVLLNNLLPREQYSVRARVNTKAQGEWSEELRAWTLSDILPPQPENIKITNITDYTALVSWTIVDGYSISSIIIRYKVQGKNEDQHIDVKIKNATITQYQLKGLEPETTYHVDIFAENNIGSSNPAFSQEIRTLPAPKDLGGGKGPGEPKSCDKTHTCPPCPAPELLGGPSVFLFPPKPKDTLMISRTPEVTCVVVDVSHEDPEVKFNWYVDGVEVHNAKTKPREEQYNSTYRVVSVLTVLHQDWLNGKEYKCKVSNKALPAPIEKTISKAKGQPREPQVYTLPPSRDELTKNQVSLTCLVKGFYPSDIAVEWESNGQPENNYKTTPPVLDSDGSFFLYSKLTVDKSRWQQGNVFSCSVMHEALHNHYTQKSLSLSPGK
Procedure: as §2, §3, §4

[10] = target: T7, hTie2-His; assay: SPR Biacore 25C, mAb captured
Procedure: as §2, §3, §4

[11] = target: T9, mTie2-hFc (mouse); assay: SPR Biacore 25C, mAb captured
T9 construct: also called mouse Tie2
Procedure: as §2, §3, §4

[12] = target: T5, hTie2-mFc; assay: SPR Biacore 25C, mAb captured
Procedure: as §2, §3, §4

T1 sequence (Q02763 other isoform, or with tags, fused parts or gaps limits assumed): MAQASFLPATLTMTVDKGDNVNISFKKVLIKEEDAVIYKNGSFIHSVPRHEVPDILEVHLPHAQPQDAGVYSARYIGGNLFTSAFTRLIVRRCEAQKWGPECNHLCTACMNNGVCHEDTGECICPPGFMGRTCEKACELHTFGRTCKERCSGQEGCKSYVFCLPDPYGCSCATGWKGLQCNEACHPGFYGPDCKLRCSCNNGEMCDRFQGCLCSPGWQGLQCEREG

MFI [4]: 3840 MFI | MFI [5]: 2910 MFI | MFI [6]: 4530 MFI | Kd [7]: 72 nM | T½ [7]: 2 min | koff [7]: 0.00488 s⁻¹ | kon [7]: 67800 M⁻¹ s⁻¹ | Kd [8]: 1.53 nM | T½ [8]: 39 min | koff [8]: 0.000295 s⁻¹ | kon [8]: 193000 M⁻¹ s⁻¹ | binding result [9]: no binding | Kd [10]: 22.4 nM | T½ [10]: 9 min | koff [10]: 0.00125 s⁻¹ | kon [10]: 55800 M⁻¹ s⁻¹ | Kd [11]: 56.3 nM | T½ [11]: 4 min | koff [11]: 0.00263 s⁻¹ | kon [11]: 46800 M⁻¹ s⁻¹ | Kd [12]: 0.67 nM | T½ [12]: 114 min | koff [12]: 0.000102 s⁻¹ | kon [12]: 151000 M⁻¹ s⁻¹
B1: H1H2339B (antibody, V domains shown)
VH: EVQLVESGGGLVQPGGSLRLSCAASGFTFSSYAMNWVRQAPGKGLEWVSSISGSGGNTYYADSVKGRFTISRDNSKNTLYLQLNSLRAEDTAVYYCAKDHSLSWYRNVFDIWGQGTMVTVSS
VL: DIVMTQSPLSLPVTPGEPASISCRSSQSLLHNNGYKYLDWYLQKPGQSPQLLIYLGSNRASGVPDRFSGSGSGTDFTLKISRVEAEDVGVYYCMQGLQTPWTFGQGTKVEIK
notes: Tested as H1H2339B (human IgG format, H1H prefix)
binding result [1]: no binding (tested: MFI >500 = significant binding) | binding result [2]: no binding (tested: MFI >500 = significant binding) | binding result [3]: no binding (tested: MFI >500 = significant binding)

MFI [4]: 4600 MFI | MFI [5]: 3010 MFI | MFI [6]: 5150 MFI | Kd [7]: 102 nM | T½ [7]: 1 min | koff [7]: 0.00998 s⁻¹ | kon [7]: 97500 M⁻¹ s⁻¹ | Kd [8]: 2.58 nM | T½ [8]: 22 min | koff [8]: 0.000515 s⁻¹ | kon [8]: 200000 M⁻¹ s⁻¹ | Kd [9]: 25.9 nM | T½ [9]: 3 min | koff [9]: 0.00371 s⁻¹ | kon [9]: 143000 M⁻¹ s⁻¹ | Kd [10]: 49.2 nM | T½ [10]: 3 min | koff [10]: 0.00345 s⁻¹ | kon [10]: 70100 M⁻¹ s⁻¹ | Kd [11]: 49.6 nM | T½ [11]: 2 min | koff [11]: 0.00672 s⁻¹ | kon [11]: 136000 M⁻¹ s⁻¹ | Kd [12]: 1.16 nM | T½ [12]: 60 min | koff [12]: 0.000191 s⁻¹ | kon [12]: 165000 M⁻¹ s⁻¹
B2: H1H2340B (antibody, V domains shown)
VH: EVQLVESGGGLVQPGGSLRLSCAASGFTFSRYWMSWVRQAPGMGLEWVANIKQDGSEKNYVDSVKGRFTVSRDNAKNSLYLQMNSLRAEDTAVYYCASAIFGVVITSYWGQGTLVTVSS
VL: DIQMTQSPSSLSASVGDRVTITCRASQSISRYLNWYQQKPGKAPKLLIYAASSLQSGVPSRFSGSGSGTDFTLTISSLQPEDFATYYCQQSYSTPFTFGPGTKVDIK
notes: Tested as H1H2340B (human IgG format, H1H prefix); also called HIH2340B
binding result [1]: no binding (tested: MFI >500 = significant binding) | binding result [2]: no binding (tested: MFI >500 = significant binding) | binding result [3]: no binding (tested: MFI >500 = significant binding)
